According to patent publication US20160051654A1 (IMMATICS BIOTECHNOLOGIES, published 2016):
Each block holds one binder with its values, some of them ahead of it. Ends that are not written are not given here.

Tests used:
[1] = target: T1, HLA-A*0201 (recombinant HLA-A*0201 heavy chain with human beta-2 microglobulin) (human); assay: EpI ELISA: refolding of recombinant HLA-A*0201 with b2m and graded peptide
[2] = target: T1, HLA-A*0201 (recombinant HLA-A*0201 …); assay: ELISA-based refolding assay: recombinant HLA-A*0201, b2m and graded peptide

fold lower KD compared with the majority of peptides [1]: 100 fold
B1: TGFBI-001 (peptide)
peptide: ALFVRLLALA
notes: also called IMA-TGFBI-001

binding result [1]: binds
B2: PCN-001 (peptide)
peptide: KLMDLDVEQL
notes: also called IMA-PCN-001

binding result [1]: binds
B3: NOX-001 (peptide)
peptide: ILAPVILYI
notes: also called IMA-NOX-001

binding result [1]: binds
B4: TOP-001 (peptide)
peptide: KIFDEILVNA
notes: also called IMA-TOP-001

binding result [2]: binds
B5: DCA-001 (peptide)
peptide: KLGDFGLATVV

binding result [2]: binds
B6: JAK-001 (peptide)
peptide: KLTDIQIEL

binding result [1]: binds
B7: C20-001 (peptide)
peptide: ALSNLEVTL
modifications: also: acetate salt
notes: also called IMA-C20-001
